Patent US20260216242A1, “ALPP-SPECIFIC VARIANT ANTIGEN BINDING MOLECULES” (ALMAC DISCOVERY LIMITED, priority 2022, published 2026)

B1: B11: ALPP targeting VHH domain, SEQ ID NO: 22 (protein)
VHH: QVHLVESGGGSVQAGGSLRLSCAASGPSLSNYAMGWFRQAPGKEREFVAGISWGGGRTSYTDSVKGRFTISRDNAKNTVYLQMNNLKPEDTGVYYCAGRYGRGRNVEYEYDYWGQGTQVTVSS
B2: G03: ALPP targeting VHH domain, SEQ ID NO: 38 (protein)
VHH: QVQLVESGGGTAQAGGSLRLACAASGRSVTMGWLGWVPRAERDDLEFITWFNWGTYYANSVNGRFTISTDNADNTVYPQMNRLKPENPAVYYCASFTGYRPLINRLNDVSDCGHGALVAVSS

Tests used:
ALPP [1] = biological target: T1, ALPP (Homo sapiens, UniProt P05187); experiment: Epitope binning by BLI competition assay; type: binding; conditions: BLI competition on immobilised ALPP
T1 sequence (P05187 with tags, fused parts or gaps): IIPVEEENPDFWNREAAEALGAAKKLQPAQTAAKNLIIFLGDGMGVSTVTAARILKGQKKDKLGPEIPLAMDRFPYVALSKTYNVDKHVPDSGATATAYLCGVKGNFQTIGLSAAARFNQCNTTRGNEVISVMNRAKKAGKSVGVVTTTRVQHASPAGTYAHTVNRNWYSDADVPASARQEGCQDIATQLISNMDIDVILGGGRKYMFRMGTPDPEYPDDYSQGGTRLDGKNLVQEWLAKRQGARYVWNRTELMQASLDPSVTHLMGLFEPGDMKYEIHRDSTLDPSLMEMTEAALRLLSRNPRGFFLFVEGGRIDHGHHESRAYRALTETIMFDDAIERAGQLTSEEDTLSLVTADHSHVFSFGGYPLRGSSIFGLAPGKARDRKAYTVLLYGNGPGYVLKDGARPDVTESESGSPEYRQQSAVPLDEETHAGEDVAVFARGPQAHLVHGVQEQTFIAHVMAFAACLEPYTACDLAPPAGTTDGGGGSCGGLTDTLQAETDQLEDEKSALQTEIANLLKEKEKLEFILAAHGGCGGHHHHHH
Procedure: To determine epitope cross reactivity BLI competition assays were conducted. AR2G sensors were used and ALPP immobilised as above. ALPP sensors were then dipped into a well containing a saturating concentration of the initial binder for ten minutes to get an association curve. The sensor was then dipped into a well containing the same concentration of initial binder plus 20 nM of a secondary binding.
An increase in the association curve was indicative that the second VHH bound to a distinct epitope from the initial binder. Monomers with identical CDR3s were grouped as likely to be in the same epitope bin and only one from each group used in the epitope binning experiment.

ALPI His homodimer = biological target: T2, ALPI His homodimer (Homo sapiens, UniProt P09923); experiment: ELISA binding to ALPI; conditions: 500 ng purified VHH
T2 sequence (P09923 with tags, fused parts or gaps): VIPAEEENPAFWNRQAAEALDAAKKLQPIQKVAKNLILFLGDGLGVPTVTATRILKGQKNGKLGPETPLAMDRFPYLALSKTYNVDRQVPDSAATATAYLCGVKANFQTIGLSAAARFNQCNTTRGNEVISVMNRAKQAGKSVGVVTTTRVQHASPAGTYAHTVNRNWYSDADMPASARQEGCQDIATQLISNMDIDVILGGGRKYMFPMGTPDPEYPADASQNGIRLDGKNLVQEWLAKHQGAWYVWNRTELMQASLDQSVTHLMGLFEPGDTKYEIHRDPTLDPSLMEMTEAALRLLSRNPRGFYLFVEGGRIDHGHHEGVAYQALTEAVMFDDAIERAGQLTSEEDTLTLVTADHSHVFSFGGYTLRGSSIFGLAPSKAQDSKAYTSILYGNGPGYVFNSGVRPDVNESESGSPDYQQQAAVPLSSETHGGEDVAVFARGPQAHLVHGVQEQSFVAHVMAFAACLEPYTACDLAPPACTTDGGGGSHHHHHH
Procedure: ELISA was used to test the binding and specificity of the VHHs. ALPP CysHis (SEQ ID NO: 263), ALPI His homodimer (SEQ ID NO: 264) or BSA (Thermo Fisher) were coated onto plates and 500 ng of each purified VHH added. Anti-Llama—HRP antibody was used for detection.

ALPP [2] = biological target: T1, ALPP; experiment: BLI binding kinetics, human ALPP immobilised on AR2G sensors (KD / KD apparent); conditions: for hALPP Ka / hALPP Kd: VHH domains
Procedure: Binding kinetics were determined using the Biolayer Interferometry (BLI) Octet K2 system (Sartorius). Human ALPP, ALPPL2, ALPL (each fused with a cysteine stabilised leucine zipper) and ALPI, (SEQ ID NO: 265, SEQ ID NO: 266 and SEQ ID NO: 267 and SEQ ID NO: 264 respectively) were immobilised in sodium acetate pH5 buffer to AR2G sensors using amine coupling. All assays were conducted in PBS with a plate temperature of 25° C. Ka (M^−1s^−1), Kd (s^−1) and KD (nM) values were determined using Octet Data Analysis High Throughput software (ForteBio) for Biolayer Interferometry.
(§1) Binding kinetics were determined using the Biolayer Interferometry (BLI) Octet K2 or R4 system (Sartorius). Human ALPP, ALPPL2 and ALPL all fused with a disulphide stabilised leucine zipper (SEQ ID NO: 265, SEQ ID NO: 266, and SEQ ID NO: 267) and ALPI His (SEQ ID NO: 264) were used in BLI experiments. For KD apparent measurements, the ALPP proteins were immobilised in sodium acetate pH5 buffer to AR2G sensors using amine coupling. To measure 1:1 interactions, AHC biosensors were used to immobilise Fc-fused proteins. All assays were conducted in HBS-EP with a plate temperature of 25° C. Ka (M^−1s^−1), Kd (s^−1) and KD (nM) values were determined using Octet Data Analysis High Throughput software (Sartorius) for Biolayer Interferometry.
as §1, with “NO:264)” for “NO: 264)”

[3] = Thermal stability (Protein Thermal Shift assay); type: physicochemical; conditions: VHH domains, first derivative analysis
Procedure: Thermal stability assays used Applied Biosystems StepOne Real Time PCR system with the Protein Thermal Shift™ dye kit (Thermo Fisher). The assay mix was set up so that the protein was at a final concentration of 20 µM in 20 μL. 5 μL of Thermal Shift™ buffer was added alongside 2.5 μL 8× Thermal Shift™ Dye. Assays were run using the StepOne software and data analysed using Protein Thermal Shift™ software. All data are from first derivative analysis.

Row | Molecule | epitope bin (ALPP [1]) | ELISA hALPI (ALPI His homodimer) | hALPP Ka (ALPP [2]) [M⁻¹ s⁻¹] | hALPP Kd (ALPP [2]) [s⁻¹] | Tm [3] [°C] | Kd (ALPP [2]; VHH domains (His-tagged monomers), PBS, 25° C., read-out: hALPP KD) [nM]
1 | B1 | one | No Binding | 213000 | 0.000017 | 77.4 | 
2 | B2 | one | No Binding | 47400 | <1e-07 | 74.0 | < 0.01
